Measurements reported in US20200354474A1 (BROWN UNIVERSITY, published 2020).

Legend:
[1] = target: T1, human Chi3l1 (chitinase 3-like-1) (human, UniProt P36222 22-383); experiment: Western blot and ELISA, denaturing and non-denaturing conditions
T1 construct: also called YKL-40; recombinant (r) human Chi3l1

[2] = target: T2, mouse Chi3l1 (chitinase 3-like-1) (mouse, UniProt Q61362 30-389, limits assumed); experiment: as above
T2 construct: Recombinant mouse Chi3l1; also called murine Chi3l1; Chil1 (printed 'Chill')
T2 sequence (Q61362 30-389 limits assumed): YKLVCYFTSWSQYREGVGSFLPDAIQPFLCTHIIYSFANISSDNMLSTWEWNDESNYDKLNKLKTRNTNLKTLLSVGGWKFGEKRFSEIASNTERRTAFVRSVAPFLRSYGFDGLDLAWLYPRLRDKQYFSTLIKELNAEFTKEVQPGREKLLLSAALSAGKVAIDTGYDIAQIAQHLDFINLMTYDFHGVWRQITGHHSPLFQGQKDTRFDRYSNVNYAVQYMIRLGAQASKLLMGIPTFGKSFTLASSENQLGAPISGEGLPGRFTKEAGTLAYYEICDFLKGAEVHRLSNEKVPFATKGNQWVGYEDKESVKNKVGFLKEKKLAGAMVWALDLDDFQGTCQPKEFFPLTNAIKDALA

T1 sequence (P36222 22-383 limits assumed): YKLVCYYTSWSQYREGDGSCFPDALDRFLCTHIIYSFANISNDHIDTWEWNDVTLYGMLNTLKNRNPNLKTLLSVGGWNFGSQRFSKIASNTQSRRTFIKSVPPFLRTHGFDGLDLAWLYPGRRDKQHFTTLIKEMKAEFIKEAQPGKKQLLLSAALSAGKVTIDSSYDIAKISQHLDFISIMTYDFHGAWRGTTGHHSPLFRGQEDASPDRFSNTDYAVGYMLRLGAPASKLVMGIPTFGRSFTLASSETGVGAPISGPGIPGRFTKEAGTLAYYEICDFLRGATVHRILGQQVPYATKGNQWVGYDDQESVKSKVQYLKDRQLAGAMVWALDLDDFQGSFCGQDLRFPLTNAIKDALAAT

- binding result [1]: binds
- binding result [2]: binds
B1: FRG monoclonal antibody (antibody, V domains shown)
VH: QIQLVQSGPELKKPGETVKISCKASGYTFTNYGMNWVKQAPGKGLKWMGWINTYTGEPTYADDFKGRFAFSLETSASTAYLQINNLRNEDMSTYFCARLGYGKFYVMDYWGQGTSVTVSS
VL: DVVMTQTPLSLPVSLGDQASISCRSSQSLVHSNGNTYLHWYLQKPGQSPKLLIYKVSNRFSGVPDRFSGSGSGTDFTLKISRVEAEDLGVYFCSQSTHVTWTFGGGTKLEIK
notes: also called FRG mAb; anti-Chi3l1-FRG
